Test results from US20240415975A1 (ABTIS, published 2024).
Values joined by “and” are separate entries in the source; they are usually repeats but may differ in a detail not shown here. Identical values can stand only once.

B1: ADC-A (MMAE conjugated with antibody-A) (antibody, human IgG1, kappa, V domains shown)
VH: QVQLVESGGGVVQPGRSLRLSCAASGFSLTTYGVHWVRQAPGKGLEWVAVIWAGGSTNYNSALMSRFTISRDNSKNTLYLQMNSLRAEDTAVYYCARAAYYGNGLDYWGQGTMVTVSS
VL: DIVMTQSPLSLPVTPGEPASISCKSSQTLLNSGNQKNYLTWYLQKPGQSPQLLIYWASTGESGVPDRFSGSGSGTDFTLKISRVEAEDVGVYYCQNAYFYPFTFGGGTKVEIKR
modifications: payload (PEG8)2-BG-MMAE linked through a linker to lysine residue 246 or 248 (EU numbering) of each heavy chain (DAR 2)
notes: which of K246 or K248 carries the payload is not resolved
B2: anti-Claudin 18.2 antibody (Anti-CLDN18.2 mAb) (antibody-A) (antibody, human IgG1, kappa, V domains shown)
VH: B1 VH
VL: B1 VL
notes: two heavy and two light chains; Elsewhere called an IgG1 type anti-CLDN18.2 antibody; Obtained from GenScript ProBio

Columns and labels:
[1] = target: Claudin 18.2 protein (CLDN18.2), expressed on cells (UniProt P56856); experiment: cell-based ELISA (OD 450 nm) on MIA PaCa-2-CLDN18.2 cells; regression in GraphPad Prism
[2] = target: Claudin 18.2 protein (CLDN18.2), expressed on cells (UniProt P56856); experiment: cell-based ELISA (OD 450 nm) on PATU8988S cells (CLDN18.2+); regression in GraphPad Prism
[3] = target: Claudin 18.2 protein (CLDN18.2), expressed on cells (UniProt P56856); experiment: cell-based ELISA (OD 450 nm) on SNU601 cells (CLDN18.2+); regression in GraphPad Prism
[4] = target: CLDN18.2 virus-like particle (VLP) in which the claudin 18.2 protein (CLDN18.2) was expressed (UniProt P56856); experiment: indirect ELISA (OD 450 nm) on plate coated with CLDN18.2 VLP; regression in GraphPad Prism
[5] = target: T1, Claudin 18.2 protein (CLDN18.2), expressed on cells (UniProt P56856-2 1-261); experiment: cell-based ELISA on CHO-K1 cells transiently transfected with CLDN18.2; regression in GraphPad Prism (row labelled Kd, text says EC50)
T1 construct: whole, on cells; One molecule is used for all cell lines carrying CLDN18.2; the cell line is named under assay
Excerpt: (§1) The measured results were used for regression analysis in GraphPad PRISM® 9.0 software to calculate EC50 and Bmax.

[6] = target: T2, Claudin 18.1 protein (CLDN18.1), expressed on CHO-K1 cells (UniProt P56856 1-261, limits assumed); experiment: cell-based ELISA on CHO-K1 cells transiently transfected with CLDN18.1
T2 construct: whole, on cells; also called CLDN18.1~CHO-K1
Excerpt: as §1

[7] = target: T1, Claudin 18.2 protein (CLDN18.2), …; experiment: cell-based or functional assay
[8] = target: T3, CLDN18.2 virus-like particle (VLP) in which the claudin 18.2 protein (CLDN18.2) was expressed (UniProt P56856 1-261); experiment: indirect ELISA on plate coated with CLDN18.2 VLP; regression in GraphPad Prism (row labelled Kd, text says EC50)
T3 construct: Bought reagent; also called CLDN18.2 VLP; CLDN18.2~VLP

| Molecule | Bmax [1] | Bmax [2] | Bmax [3] | Bmax [4] | Kd [5] | binding result [6] | IC50 (nM), cell viability (CellTiter-Glo), MIA PaCa-2 (CLDN18.2+) [7] [nM] | IC50 (nM), cell viability (CellTiter-Glo), NUGC4 (CLDN18.2+) [7] [nM] | IC50 (nM), cell viability (CellTiter-Glo), PATU8988S (CLDN18.2+) [7] [nM] | IC50 (nM), cell viability (CellTiter-Glo), SNU601 (CLDN18.2+) [7] [nM] | Kd [8] |
| --- | --- | --- | --- | --- | --- | --- | --- | --- | --- | --- | --- |
| Zolbetuximab (antibody-B) | 3.05 | 1.21 | 1.7 | 2.13 |  |  |  |  |  |  |  |
| B1 |  |  |  |  | 0.123 µg/mL and 0.82 nM | no binding | 0.101 | 1.59 | 0.279 | 0.095 | 0.0527 µg/mL and 0.351 nM |
| B2 |  |  |  |  | 0.0636 µg/mL and 0.424 nM | no binding |  |  |  |  | 0.0319 µg/mL and 0.212 nM |
